In PMC8352940 (Nature Communications, 2021):
Numbering of substitutions follows the chain as printed.

B1: nCoVmab1 (antibody, V domains shown)
VH: QVQLVESGGGLVQPGGSLRLSCAASGFTVSSNYMSWVRQAPGKGLEWVSVIYSGGSTYYADSVKGRFTISRDNSKNTLYLQMNSLRAEDTAVYYCARGDGSDDYYYGMDVWGQGTTVTVSS
VL: QSVVTQPPSVSGAQGQRVFISCTGNGANIGMGYDVHWYQQLPGRAPKLLIFGNTNRPSGVPDRFSASRSGTSASLAITGLQTADEADYYCQSYDGNLRASVFGGGTKLTVL
notes: also called nCoVFab1 in IgG1 format; source: 293F cells, purified (Protein A resin)
B2: nCoVmab2 (antibody, V domains shown)
VH: B1 VH with Q1E, E6Q, L11V, G16R
VL: QAVLTQPSSVSGAPGQRVTISCTGSSSNVGAGYDVHWYQQLPGTAPKLLIYGNSNRPSGVPDRFSGSKSGTSASLAITGLQAEDEADYYCQSYDSSLSGSVFGGGTKLTVL
notes: also called nCoVFab2 in IgG1 format; source: 293F cells, purified (Protein A resin)

Molecular target: SARS-CoV-2 RBD-Fc fusion protein (SARS-CoV-2, UniProt P0DTC2)
Test: ELISA
Conditions: both partners purified

| Binder | fold change in EC50 compared to wild type [fold] |
| --- | --- |
| B1 | 1 |
| B2 | 1 |
